Experimental data from paper PMC12815460, “A high-resolution analysis of arrestin2 interactions responsible for CCR5 endocytosis” (eLife, 2026).
Values belong to the molecule of their own block, whether it stands above or below them.

Legend:
[1] = target: arrestin2^1-418 (full-length human arrestin2) (human) (UniProt P49407)
[2] = target: CCR5pp3 phosphopeptide C-terminal phosphopeptide (Homo sapiens) (UniProt P51681); details: cited from earlier work
AP2β2 (Homo sapiens) = AP2β2 (Homo sapiens) (UniProt P63010); assay: EPR; details: cited from earlier work
[3] = target: T1, clathrin-N (clathrin heavy chain 1 N-terminal domain, residues 1–364) (UniProt Q00610 1-364); assay: NMR titration; 50 μM 15N,2H-labelled clathrin-N observed (1H-15N HSQC-TROSY, 900 MHz), unlabelled arrestin2 construct added up to equimolar, no phosphopeptide; 20 mM HEPES, 150 mM NaCl, pH 7.4, 303 K; details: both partners purified
T1 construct: the construct used here is 1–364; Tag removed with 3C protease; pETM33 may add GST besides the His tag (surmise); Used 15N,2H-labelled or unlabelled; also called clathrin heavy chain N-terminal domain; CLTC Clathrin propeller; source: E. coli BL21 (DE3), purified (Ni-NTA, reverse IMAC, gel filtration)
T1 sequence (looked up): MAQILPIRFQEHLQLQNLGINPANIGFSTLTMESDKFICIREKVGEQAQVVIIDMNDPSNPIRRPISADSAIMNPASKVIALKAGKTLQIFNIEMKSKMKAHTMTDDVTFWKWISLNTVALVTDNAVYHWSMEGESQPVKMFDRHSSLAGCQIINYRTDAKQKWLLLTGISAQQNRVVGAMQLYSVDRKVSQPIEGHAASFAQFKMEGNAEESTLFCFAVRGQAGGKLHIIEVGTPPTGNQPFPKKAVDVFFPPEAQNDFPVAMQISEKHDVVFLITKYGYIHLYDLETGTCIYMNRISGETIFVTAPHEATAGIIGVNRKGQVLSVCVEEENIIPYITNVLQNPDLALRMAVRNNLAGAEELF

[4] = target: T1, clathrin-N (clathrin heavy chain 1 …); assay: NMR titration; 50 μM Ile-δ1-13CH3,2H-labelled arrestin2^1-393 observed (1H-13C HMQC), unlabelled clathrin-N up to 600 μM; I377 13C shifts fitted with a 1:1 isotherm; apparent; 20 mM HEPES, 150 mM NaCl, pH 7.4, 303 K; details: both partners purified
AP2β2 = target: T2, AP2β2 (Homo sapiens, UniProt P63010); assay: SEC
T2 chain: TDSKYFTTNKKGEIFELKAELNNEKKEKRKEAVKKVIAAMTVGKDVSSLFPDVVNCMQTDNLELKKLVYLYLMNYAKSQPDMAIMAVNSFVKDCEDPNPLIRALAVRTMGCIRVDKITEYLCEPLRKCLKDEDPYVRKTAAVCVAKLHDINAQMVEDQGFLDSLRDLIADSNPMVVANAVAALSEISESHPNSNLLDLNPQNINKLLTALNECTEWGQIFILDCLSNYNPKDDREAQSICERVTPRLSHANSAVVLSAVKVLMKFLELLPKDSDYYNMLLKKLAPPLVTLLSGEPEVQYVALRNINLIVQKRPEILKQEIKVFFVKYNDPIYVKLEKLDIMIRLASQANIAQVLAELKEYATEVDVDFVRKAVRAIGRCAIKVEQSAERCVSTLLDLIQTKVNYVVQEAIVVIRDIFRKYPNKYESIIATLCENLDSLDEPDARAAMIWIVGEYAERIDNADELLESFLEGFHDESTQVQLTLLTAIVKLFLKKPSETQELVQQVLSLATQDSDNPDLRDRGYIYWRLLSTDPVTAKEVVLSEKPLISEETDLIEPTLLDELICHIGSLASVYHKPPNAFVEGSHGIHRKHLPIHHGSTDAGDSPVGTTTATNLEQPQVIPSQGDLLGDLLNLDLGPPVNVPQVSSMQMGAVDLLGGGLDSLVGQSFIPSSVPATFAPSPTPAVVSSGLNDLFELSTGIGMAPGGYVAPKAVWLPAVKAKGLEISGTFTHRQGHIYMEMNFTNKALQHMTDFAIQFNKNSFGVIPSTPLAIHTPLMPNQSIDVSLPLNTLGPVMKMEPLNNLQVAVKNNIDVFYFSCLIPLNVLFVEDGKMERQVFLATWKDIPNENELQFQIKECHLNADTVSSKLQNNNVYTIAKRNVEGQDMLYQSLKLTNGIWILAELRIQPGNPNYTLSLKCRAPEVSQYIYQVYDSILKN

Chain of CCR5pp3 phosphopeptide C-terminal phosphopeptide (Homo sapiens) (P51681 332-352): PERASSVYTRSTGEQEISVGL

protection of CCR5pp6-activated arrestin2^1-418 from trypsin: proteolysis midpoint at 1-, 2- and 5-molar equivalents of AP2β2^701-937 (10 to 30 min) [1]: 30 min
Molecule: AP2β2^701-937 (C-terminal domain of the β2 subunit of the AP2 complex, residues 701–937) (from UniProt P63010 701-937) (domain or fragment)

Kd (AP2β2): 9 µM
B3: arrestin2 (protein)
chain: MGDKGTRVFKKASPNGKLTVYLGKRDFVDHIDLVDPVDGVVLVDPEYLKERRVYVTLTCAFRYGREDLDVLGLTFRKDLFVANVQSFPPAPEDKKPLTRLQERLIKKLGEHAYPFTFEIPPNLPCSVTLQPGPEDTGKACGVDYEVKAFCAENLEEKIHKRNSVRLVIRKVQYAPERPGPQPTAETTRQFLMSDKPLHLEASLDKEIYYHGEPISVNVHVTNNTNKTVKKIKISVRQYADICLFNTAQYKCPVAMEEADDTVAPSSTFCKVYTLTPFLANNREKRGLALDGKLKHEDTNLASSTLLREGANREILGIIVSYKVKVKLVVSRGGLLGDLASSDVAVELPFTLMHPKPKEEPPHREVPENETPVDTNLIELDTNDDDIVFEDFARQRLKGMKDDKEEEEDGTGSPQLNNR
modifications: CCR5pp6 phosphopeptide

Further lines, the molecule ahead of its results:

Molecule: arrestin2 (from UniProt P49407)
Kd [2]: 200 µM

Molecule: arrestin β20 peptide 383-402 (from UniProt P49407)
Kd (AP2β2 (Homo sapiens)): 9 µM

B1: arrestin2^1-393 (truncated human arrestin2, residues 1–393) (domain or fragment)
chain: MGDKGTRVFKKASPNGKLTVYLGKRDFVDHIDLVDPVDGVVLVDPEYLKERRVYVTLTCAFRYGREDLDVLGLTFRKDLFVANVQSFPPAPEDKKPLTRLQERLIKKLGEHAYPFTFEIPPNLPCSVTLQPGPEDTGKACGVDYEVKAFLAENLEEKIHKRNSVRLVIRKVQYAPERPGPQPTAETTRQFLMSDKPLHLEASLDKEIYYHGEPISVNVHVTNNTNKTVKKIKISVRQYADIVLFNTAQYKVPVAMEEADDTVAPSSTFSKVYTLTPFLANNREKRGLALDGKLKHEDTNLASSTLLREGANREILGIIVSYKVKVKLVVSRGGLLGDLASSDVAVELPFTLMHPKPKEEPPHREVPENETPVDTNLIELDTNDDDIVFEDFAR
modifications: Cys replacements inferred from the printed arrestin2-ΔCBL sequence (L150, V242, V251, S269), assumed to share the parent construct of Isaikina et al. 2023; not stated in this text for 1-393. Isotope …
stoichiometry N [3]: 1
Kd [4]: 104 ± 9 µM

B2: arrestin2 (protein)
chain: B3 chain
modifications: CCR5pp4 phosphopeptide
Kd (AP2β2): 44 µM

B4: arrestin2 (protein)
chain: B3 chain
modifications: CCR5pp3 phosphopeptide
Kd (AP2β2): 40 µM
